{"source": "the DeepSol protein solubility set", "data": [{"assay": "soluble on expression in E. coli; label from the status in PepcDB or PDB records", "values": [{"sequence": "MVMVLDSLGRALSNALKKIARAGSVDEALVKEVVRDIQRALLQADVNVRLVLKLTKEIQRRALEEKPPAGISKKEHIIKIVYEELTKFLGTEAKPIEIKEKPTVLLTVGVQGSGKTTTVAKLARYFQKRGYKVGVVCSDTWRPGAYHQLKQLLDPYHIEVFGDPNEKDAVKLAKEGVEYFKTRDVDLIIVDTAGRHKEEKDLIEEMRMISEEIRPHEVILVIDGTIGQQAYNQALAFKEATPIGSIIVTKLDSSAKGGGALSAVAATGAPIKFIGVGEKIDDLEPFDPARFVSRLLGLGDIQGLLEKFKELEKEVEFTEEDIDRFLRGKFTLKDMYAQLEAMRKMGPLKQILRMIPGLGYSLPDELISVGEERLRKFKVIMDSMTEEELMNPEIINYSRIKRIARGSGTSIKDVKELLTQYNQMKKFFKSMNKRQLSRLARRFGM", "soluble on expression in E. coli": "soluble"}, {"sequence": "AKYYNEPCHTFNEYLLIPGLSTVDCIPSNVNLSTPLVKFQKGQQSEINLKIPLVSAIMQSVSGEKMAIALAREGGISFIFGSQSIESQAAMVHAVKNFKDSQKRYLVGAGINTRDFRERVPALVEAGADVLCIDSSDGFSEWQKITIGWIRDKYGDKVKVGAGNIVDGEGFRYLADAGADFIKIGIGGGSICITREQKGIGRGQATAVIDVVAERNKYFEETGIYIPVCSDGGIVYDYHMTLALAMGADFIMLGRYFARFEESPTRKVTINGSVMKEYWGEGSSRARNWQRYDLGGKQKLSFEEGVDSYVPYAGKLKDNVEASLNKVKSTMCNCGALTIPQLQSKAKITLVSSVSIVEGGAHDVIVKDRINDYHPK", "soluble on expression in E. coli": "soluble"}, {"sequence": "MGSDKIHHHHHHMIDKLEFFIALARAQHFGRAAEECGISQPTLSAAIRQLEDQLGVILVQRGSRFQGLTPEGQRVLEWARRIVGDARTMREEMRAARNGLAGHIRLAVIPTALAMVQRLTEPFQAHHPAVTFQVVSRNSLQVLSLLENLEIDAGITYLDNEPLGRVTSVPLYAERYHLIAATGTPLADRESVTWREVSDLRLCLLTADMQNRRIINQHFTEAGVVPRPTLESNSMIVLFSHIRTGQWSSIMPRNVAESFGFPEEIRMVPIVEPQAQHLVGLVATHREPYTPLVSALLHEARRLAAAQVFDRFFLSRNNTAVLT", "soluble on expression in E. coli": "not soluble"}, {"sequence": "MLPDADSKDQLVTIIQSVKPPTVPPHRSHDPANNLKRTDPYQFGSRYLEEGDDVFEFNAWDHVEPDDEFKAFAEVQYAKQRESPVSDFDKQRFNKDPAKWWNLFYKNNTSNFFKDRKWLRQEFPVLAEVTQKGAGRKVVLEVGAGAGNTAFPLITHNKNEELMVHACDFSKTAVQVMRESEHYNPKFISADVWDVTAVPDEENNGLPPGLTEGSVDVVILIFIFSALAPSQWDQAIRNVYRVLKPGGLVLFRDYGRGDLAQVRFKKGRYMDENFYVRGDGTRVYFFEKEQLEKMWGTWTPEKGLQMAEDNSIVAESEGAFDVEKIGVDRRLIVNRQRKLKMYRCWIQAHYRKRETPAAVEAEKADS", "soluble on expression in E. coli": "not soluble"}, {"sequence": "MNQNLLVTKRDGSTERINLDKIHRVLDWAAEGLHNVSISQVELRSHIQFYDGIKTSDIHETIIKAAADLISRDAPDYQYLAARLAIFHLRKKAYGQFEPPALYDHVVKMVEMGKYDNHLLEDYTEEEFKQMDTFIDHDRDMTFSYAAVKQLEGKYLVQNRVTGEIYESAQFLYILVAACLFSNYPRETRLQYVKRFYDAVSTFKISLPTPIMSGVRTPTRQFSSCVLIECGDSLDSINATSSAIVKYVSQRAGIGINAGRIRALGSPIRGGEAFHTGCIPFYKHFQTAVKSCSQGGVRGGAATLFYPMWHLEVESLLVLKNNRGVEGNRVRHMDYGVQINKLMYTRLLKGEDITLFSPSDVPGLYDAFFADQEEFERLYTKYEKDDSIRKQRVKAVELFSLMMQERASTGRIYIQNVDHCNTHSPFDPAIAPVRQSNLCLEIALPTKPLNDVNDENGEIALCTLSAFNLGAINNLDELEELAILAVRALDALLDYQDYPIPAAKRGAMGRRTLGIGVINFAYYLAKHGKRYSDGSANNLTHKTFEAIQYYLLKASNELAKEQGACPWFNETTYAKGILPIDTYKKDLDTIANEPLHYDWEALRESIKTHGLRNSTLSALMPSETSSQISNATNGIEPPRGYVSIKASKDGILRQVVPDYEHLHDAYELLWEMPGNDGYLQLVGIMQKFIDQSISANTNYDPSRFPSGKVPMQQLLKDLLTAYKFGVKTLYFQNTRDGAEDAQDDLVPSIQDDGCESGACKI", "soluble on expression in E. coli": "soluble"}, {"sequence": "ARFMAVSSELKDDTRTYTVAGQVFFASSDRFMSHFDFREAVERVVIDVTHAHFWDITSVSALDRVVIKFRREGTEVEIKGMNDATRTLVDRFGVHDKPEEVEKLMGGH", "soluble on expression in E. coli": "not soluble"}, {"sequence": "MKLQKQLLEAVEHKQLRPLDVQFALTVAGDEHPAVTLAAALLSHDAGEGHVCLPLSRLENNEASHPLLATCVSEIGELQNWEECLLASQAVSRGDEPTPMILCGDRLYLNRMWCNERTVARFFNEVNHAIEVDEALLAQTLDKLFPVSDEINWQKVAAAVALTRRISVISGGPGTGKTTTVAKLLAALIQMADGERCRIRLAAPTGKAAARLTESLGKALRQLPLTDEQKKRIPEDASTLHRLLGAQPGSQRLRHHAGNPLHLDVLVVDEASMIDLPMMSRLIDALPDHARVIFLGDRDQLASVEAGAVLGDICAYANAGFTAERARQLSRLTGTHVPAGTGTEAASLRDSLCLLQKSYRFGSDSGIGQLAAAINRGDKTAVKTVFQQDFTDIEKRLLQSGEDYIAMLEEALAGYGRYLDLLQARAEPDLIIQAFNEYQLLCALREGPFGVAGLNERIEQFMQQKRKIHRHPHSRWYEGRPVMIARNDSALGLFNGDIGIALDRGQGTRVWFAMPDGNIKSVQPSRLPEHETTWAMTVHKSQGSEFDHAALILPSQRTPVVTRELVYTAVTRARRRLSLYADERILSAAIATRTERRSGLAALFSSRE", "soluble on expression in E. coli": "soluble"}, {"sequence": "MSPVSARFEPAALRPDLARIAGWIEPGSRVLDLGCGDGALLAYLRDHRQVRGAGVEIDDNYVIACVQRGVEVIQQNLEDGLALFDDQQFDTVVLSQTLQSMHRTEHILREMARVARHGVVSFPNFGYWPHGWSILRGRMPVTGQMPYQWYNTPNIHLCTLRDFEDLAGTLGLRILQRATFNEGREVRVFPSWRSTLALYRFAASLEHHHHHH", "soluble on expression in E. coli": "not soluble"}, {"sequence": "MDEDVLPGEVLAIEGIFMACGLNEPEYLYHPLLSPIKLYITGLMRDKESLFEAMLANVRFHSTTGIDQLGLSMLQVSGDGNMNWGRALAILTFGSFVAQKLSNEPHLRDFALAVLPAYAYEAIGPQWFRARGGWRGLKAYCTQVLTDDDDLEHHHHHH", "soluble on expression in E. coli": "soluble"}, {"sequence": "MPWLLPREIAPLHQKALDRYLGSLTERLSDPNVDRNALVREELARLLYGRPYEELLEANPLAAMGLDPEGITFEAEYYAATDLEKFRRVKPLLWFWKVLDLTPLGQSVHSGVAIRRALAPFIFKRVGKNPKFFQNVEFSVGYNLELGDDVVVHRYVFLDDIGGIKIGDRTSLSDYVNVYSHTHHVLASPDVTLKETIIGSGVRITYHATVLAGVRIGDDAMVGTGAVVTKDIPPHAIALGIPARPVRYKVRHDCPYCRKGEPHPSDLVPKLPDRKGNPDYPDFLPPGFGTREAGS", "soluble on expression in E. coli": "soluble"}, {"sequence": "MGHHHHHHSHVHMKDFFYFRNHFCITFELLGINLYELMKNNNFQGFSLSIVRRFTLSVLKCLQMLSVEKIIHCDLKPENIVLYQKGQASVKVIDFGSSCYEHQKVYTYIQSRFYRSPEVILGHPYDVAIDMWSLGCITAELYTGYPLFPGENEVEQLACIMEVLGLPPAGFIQTASRRQTFFDSKGFPKNITNNRG", "soluble on expression in E. coli": "soluble"}, {"sequence": "MDRIRNDGVFYEIAYAESLMPATRKNTLFNGRVLIRSLKSKNIIFSSGAETMLDLRSPVDVMNMSLLWGVANNEARKMISGFPKNLLLQAECRGTGNGDVCSMKLSDAEKLAGNGEEEEQDGASEEKVVVGKEEEAEKVKAPPIEVRMNHSQYQALLQATKNANDMMKKIKASKAASSS", "soluble on expression in E. coli": "not soluble"}, {"sequence": "MAIEIPNMIQIGSTGRNSGKTTLAEALIKQYQEVYPIYGLKIITISGQRGVCQRGTKGCGICTSITAGYELVEEQETIGNKDTMKLLAAGCQKVFLLKVFQENLAEAIQQFLKAVPAQALIICESNSLRNVVQPGLFLMMNNQNRQKESAKKVIDKADFCLLSAEIPKKLRIYYQGEQLQVSLKRGNKKECVH", "soluble on expression in E. coli": "not soluble"}, {"sequence": "AGMELVGWLVDKGITSEKQWIQEDQASYISFNAASNSRSQIKAALDNAGKIMSLTKTAPDYLVGQQPVEDISSNRIYKILELNGYDPQYAASVFLGWATKKFGKRNTIWLFGPATTGKTNIAEAIAHTVPFYGCVNWTNENFPFNDCVDKMVIWWEEGKMTAKVVESAKAILGGSKVRVDQKCKSSAQIDPTPVIVTSNTNMCAVIDGNSTTFEHQQPLQDRMFKFELTRRLDHDFGKVTKQEVKDFFRWAKDHVVEVEHEFYVKKGG", "soluble on expression in E. coli": "soluble"}]}]}
